Columns and labels:
[1] = biological target: T1, LY75 883-901 (human); test: peptide microarray; region identified by signal above the cut off
T1 construct: Region put together from overlapping 8mers on the array
T1 peptide: DDHFTYSRYPWHRFPVTFG
Protocol: (§1) The peptide microarray analysis was performed by LC Sciences, Houston Tex., in brief the method comprised the following steps: —Contiguous 8mer peptides of LY75 protein having […] spanning residues 216 to 1666 of the full length LY75 protein were synthesized and immobilized on a microarray chip. The chip comprised three panels such that the experiment was performed in triplicate. […] The binding assay was performed under the following conditions:—
(§2) The microarray comprising the contiguous peptides in triplicate was washed with 1 mL of binding buffer at 4° C. for 20 min. […] The array was again washed with 0.5 mL of washing buffer at 4° C. for 30 min then incubated with 25 ng/mL anti-human IgG Alexa 647 conjugate in binding buffer (pH 7.0) at 4° C. for 1 hr. The array was again washed with 0.5 mL of washing buffer at 4° C. for 30 min.

[2] = biological target: T2, LY75 1077-1093 (human); test: as above
T2 construct: Region put together from overlapping 8mers on the array
T2 peptide: FTSCSERHFVSLCQKYS
Protocol: as §1, §2

[3] = biological target: T3, LY75 1029-1040 (human); test: as above
T3 construct: Region put together from overlapping 8mers on the array
T3 peptide: RELTYSNFHPLL
Protocol: as §1, §2

[4] = biological target: T4, LY75 1107-1118 (human); test: as above
T4 construct: Region put together from overlapping 8mers on the array
T4 peptide: TVKYLNNLYKII
Protocol: as §1, §2

[5] = biological target: T5, RWIQYKGH; test: peptide microarray, 8mer on the chip, 1 µg/mL LY75_A1, anti-human IgG Alexa 647
T5 construct: LY75 8mer on the microarray
T5 peptide: RWIQYKGH
Protocol: as §1, §2

[6] = biological target: T6, VKYLNNLY; test: as above
T6 construct: LY75 8mer on the microarray
T6 peptide: VKYLNNLY
Protocol: as §1, §2

[7] = biological target: T7, RYPWHRFP; test: as above
T7 construct: LY75 8mer on the microarray
T7 peptide: RYPWHRFP
Protocol: as §1, §2

[8] = biological target: T8, FVSLCQKY; test: as above
T8 construct: LY75 8mer on the microarray
T8 peptide: FVSLCQKY
Protocol: as §1, §2

[9] = biological target: T9, GWHFYDDR (765-772) (human); test: as above
T9 construct: Tryptic peptide of recombinant LY75, found by LC-MS/MS after pull down
T9 peptide: GWHFYDDR
Protocol: as §1, §2

[10] = biological target: T10, KLSRLTYS; test: as above
T10 construct: LY75 8mer on the microarray
T10 peptide: KLSRLTYS
Protocol: as §1, §2

[11] = biological target: T11, SRWIQYKG; test: as above
T11 construct: LY75 8mer on the microarray
T11 peptide: SRWIQYKG
Protocol: as §1, §2

[12] = biological target: T12, DREFIYLR; test: as above
T12 construct: LY75 8mer on the microarray; aa 771-778 counted from Region 3 (aa761-780)
T12 peptide: DREFIYLR
Protocol: as §1, §2

[13] = biological target: T13, RRGWHFYD; test: as above
T13 construct: LY75 8mer on the microarray; aa 763-770 counted from Region 3 (aa761-780)
T13 peptide: RRGWHFYD
Protocol: as §1, §2

[14] = biological target: T14, EAVYFHQH; test: as above
T14 construct: LY75 8mer on the microarray
T14 peptide: EAVYFHQH
Protocol: as §1, §2

[15] = biological target: T15, YSRYPWHR; test: as above
T15 construct: LY75 8mer on the microarray
T15 peptide: YSRYPWHR
Protocol: as §1, §2

[16] = biological target: T16, YFHQHSIL; test: as above
T16 construct: LY75 8mer on the microarray
T16 peptide: YFHQHSIL
Protocol: as §1, §2

[17] = biological target: T17, VYFHQHSI; test: as above
T17 construct: LY75 8mer on the microarray
T17 peptide: VYFHQHSI
Protocol: as §1, §2

[18] = biological target: T18, YKSDQALH; test: as above
T18 construct: LY75 8mer on the microarray
T18 peptide: YKSDQALH
Protocol: as §1, §2

[19] = biological target: T19, YLNNLYKI; test: as above
T19 construct: LY75 8mer on the microarray
T19 peptide: YLNNLYKI
Protocol: as §1, §2

[20] = biological target: T20, KKLSRLTY; test: as above
T20 construct: LY75 8mer on the microarray
T20 peptide: KKLSRLTY
Protocol: as §1, §2

[21] = biological target: T21, YPWHRFPV; test: as above
T21 construct: LY75 8mer on the microarray
T21 peptide: YPWHRFPV
Protocol: as §1, §2

[22] = biological target: T22, LSCYKVFH; test: as above
T22 construct: LY75 8mer on the microarray
T22 peptide: LSCYKVFH
Protocol: as §1, §2

[23] = biological target: T23, RELTYSNF; test: as above
T23 construct: LY75 8mer on the microarray
T23 peptide: RELTYSNF
Protocol: as §1, §2

[24] = biological target: T24, YSNFHPLL; test: as above
T24 construct: LY75 8mer on the microarray
T24 peptide: YSNFHPLL
Protocol: as §1, §2

[25] = biological target: T25, SLSCYKVF; test: as above
T25 construct: LY75 8mer on the microarray
T25 peptide: SLSCYKVF
Protocol: as §1, §2

[26] = biological target: T26, EFIYLRPF; test: as above
T26 construct: LY75 8mer on the microarray; aa 773-780 counted from Region 3 (aa761-780)
T26 peptide: EFIYLRPF
Protocol: as §1, §2

[27] = biological target: T27, LTYSNFHP; test: as above
T27 construct: LY75 8mer on the microarray
T27 peptide: LTYSNFHP
Protocol: as §1, §2

Measured: binding result

B1: LY75_A1 monoclonal antibody (antibody, human IgG1, kappa, V domains shown)
VH: EVQLVESGGGLVKPGGSLRLSCAASGFTYSNAWMSWVRQAPGKGLEWVGRIKSKTDGGTTDYAAPVQGRFTISRDDSKNTLYLQMNSLKTEDTAVYYCTIFGVVSFDYWGQGTLVTVSS
VL: DVQMTQSPSSLSASVGDRVTITCRASQSISDYLSWYQQRPGKAPNLLIYAASNLKTGVPSRFSGSGSGTDFTLTISTLQPEDFATYYCQQSYRSPWTFGQGTKVEIKR
notes: also called LY75A1 antibody; antibody LY75_A1
binds: [1] | [2] | [3] | [4] | [5] | [6] | [7] | [8] | [9] | [10] | [11] | [12] | [13] | [14] | [15] | [16] | [17] | [18] | [19] | [20] | [21] | [22] | [23] | [24] | [25] | [26] | [27]

Source: patent US20210113690A1 (BERLIN CHEMIE, published 2021)
